Earlier results, collected in publication PMC5801593.

Molecular target: IscS (Escherichia coli) (UniProt P0A6B7)
Assay: fluorescence labeling and calorimetry

Sequence of IscS (Escherichia coli) (P0A6B7 whole entry): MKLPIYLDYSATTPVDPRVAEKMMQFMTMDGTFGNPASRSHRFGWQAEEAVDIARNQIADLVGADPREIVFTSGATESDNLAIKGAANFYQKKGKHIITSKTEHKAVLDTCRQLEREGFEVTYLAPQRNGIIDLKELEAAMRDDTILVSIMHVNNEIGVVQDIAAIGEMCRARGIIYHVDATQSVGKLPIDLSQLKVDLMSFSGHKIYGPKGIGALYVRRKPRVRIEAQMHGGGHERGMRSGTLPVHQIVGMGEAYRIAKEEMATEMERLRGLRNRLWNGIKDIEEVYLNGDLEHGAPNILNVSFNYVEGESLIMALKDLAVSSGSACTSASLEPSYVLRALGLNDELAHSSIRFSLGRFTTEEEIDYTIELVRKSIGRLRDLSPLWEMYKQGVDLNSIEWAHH
Sequence of CyaY (P27838 whole entry): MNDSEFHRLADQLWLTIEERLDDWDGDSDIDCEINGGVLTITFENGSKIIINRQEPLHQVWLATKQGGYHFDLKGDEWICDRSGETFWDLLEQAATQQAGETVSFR

Substance | Kd [µM]
CyaY (from UniProt P27838) | 20
IscX (from UniProt P0C0L9) | 12
